Results reported in US20140141037A1.

Molecular target: RSV F uncleavable ectodomain (Delp21Furx, the ectodomain polypeptide) (respiratory syncytial virus)
Experiment: Size exclusion chromatography of the mixture of RSV F monomer and HRA peptide; monomer alone ~75 mls, reference trimer (FP deletion) ~65 mls

Binder: LEGEVNKIKSALLSTNKAVVSLSNGVSVLTSKVLDLKNYIDKQLLPIV [RSV F HRA peptide, RSV residues 160-207]
- Retention Volume Superdex P200: 60 mL
